Laboratory results published in patent US20260116983A1.

Assays:
[1] = target: human uPAR displayed on the surface of MDA-MB-231 cells (human) (UniProt Q03405); test: cell-based or functional assay
[2] = target: human uPAR displayed on the surface of MDA-MB-231 cells (human) (UniProt Q03405); test: flow cytometry (FACS) on MDA-MB-231 cells; isotype control

Sequence of human uPAR displayed on the surface of MDA-MB-231 cells (human) (Q03405 23-305): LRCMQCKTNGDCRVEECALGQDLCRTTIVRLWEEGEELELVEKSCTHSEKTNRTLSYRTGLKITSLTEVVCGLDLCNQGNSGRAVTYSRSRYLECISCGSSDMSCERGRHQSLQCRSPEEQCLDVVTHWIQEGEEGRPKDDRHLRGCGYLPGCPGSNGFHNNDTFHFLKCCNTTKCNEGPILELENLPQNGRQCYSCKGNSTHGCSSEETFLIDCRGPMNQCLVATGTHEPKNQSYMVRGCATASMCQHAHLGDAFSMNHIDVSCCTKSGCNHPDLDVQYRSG

ADCC NK-92 Max % [1]: 0.468% | ADCC PBMCs Max % [1]: 4.8% | Cellular recognition Max % [2]: 155%
Substance: human IgG1 control (antibody)
